How the values were obtained:
[1] = system: Human primary foreskin fibroblasts (BJ fibroblasts); experiment: Innate immune response in BJ fibroblasts, repeat transfection (IFN-beta, IL-6); assay type: cell-based; conditions: daily transfection, Day 1
Female BALB/C mice = experiment: In vivo detection of innate immune response: human G-CSF and mouse IFN-alpha in serum; conditions: Protein: Cytokine Ratio
Method: Blood is collected at 8 hours after dosing and using ELISA the protein levels of G-CSF and interferon-alpha (IFN-alpha) is determined by ELISA and are shown in Table 81.

B1: G-CSF Gen 2: G-CSF mRNA SEQ ID NO 6, Cap1, fully modified with 5-methylcytosine and N1-methylpseudouridine (nucleic acid, listed as Homo sapiens)
chain: GGGAAAUAAGAGAGAAAAGAAGAGUAAGAAGAAAUAUAAGAGCCACCAUGGCCGGUCCCGCGACCCAAAGCCCCAUGAAACUUAUGGCCCUGCAGUUGCUGCUUUGGCACUCGGCCCUCUGGACAGUCCAAGAAGCGACUCCUCUCGGACCUGCCUCAUCGUUGCCGCAGUCAUUCCUUUUGAAGUGUCUGGAGCAGGUGCGAAAGAUUCAGGGCGAUGGAGCCGCACUCCAAGAGAAGCUCUGCGCGACAUACAAACUUUGCCAUCCCGAGGAGCUCGUACUGCUCGGGCACAGCUUGGGGAUUCCCUGGGCUCCUCUCUCGUCCUGUCCGUCGCAGGCUUUGCAGUUGGCAGGGUGCCUUUCCCAGCUCCACUCCGGUUUGUUCUUGUAUCAGGGACUGCUGCAAGCCCUUGAGGGAAUCUCGCCAGAAUUGGGCCCGACGCUGGACACGUUGCAGCUCGACGUGGCGGAUUUCGCAACAACCAUCUGGCAGCAGAUGGAGGAACUGGGGAUGGCACCCGCGCUGCAGCCCACGCAGGGGGCAAUGCCGGCCUUUGCGUCCGCGUUUCAGCGCAGGGCGGGUGGAGUCCUCGUAGCGAGCCACCUUCAAUCAUUUUUGGAAGUCUCGUACCGGGUGCUGAGACAUCUUGCGCAGCCGUGAAGCGCUGCCUUCUGCGGGGCUUGCCUUCUGGCCAUGCCCUUCUUCUCUCCCUUGCACCUGUACCUCUUGGUCUUUGAAUAAAGCCUGAGUAGGAAG
modifications: Cap1; 5-methylcytosine, N1-methylpseudouridine
- IFNbeta [1]: 3 pg/mL
- PC Ratio (Female BALB/C mice): 748

From US20200164038A1, “MODIFIED NUCLEOSIDE, NUCLEOTIDE, AND NUCLEIC ACID COMPOSITIONS” (ModernaTX, Inc., priority 2011, published 2020)
